This assay deals with T1, mouse integrin alpha7beta1 from digitonin-solubilized skeletal muscle (mouse, UniProt Q61738 34-1135; P09055 21-801, limits assumed).
T1 construct: also called integrin α7β1; alpha7beta1 integrin
Kind of assay: WGA lectin affinity chromatography and sucrose gradient fractionation of digitonin-solubilized muscle, immunoblot. In general terms: Immunoblotting shows a protein as a band on a membrane.

T1 sequence (Q61738 other isoform, or with tags, fused parts or gaps limits assumed, chain 1 of 2): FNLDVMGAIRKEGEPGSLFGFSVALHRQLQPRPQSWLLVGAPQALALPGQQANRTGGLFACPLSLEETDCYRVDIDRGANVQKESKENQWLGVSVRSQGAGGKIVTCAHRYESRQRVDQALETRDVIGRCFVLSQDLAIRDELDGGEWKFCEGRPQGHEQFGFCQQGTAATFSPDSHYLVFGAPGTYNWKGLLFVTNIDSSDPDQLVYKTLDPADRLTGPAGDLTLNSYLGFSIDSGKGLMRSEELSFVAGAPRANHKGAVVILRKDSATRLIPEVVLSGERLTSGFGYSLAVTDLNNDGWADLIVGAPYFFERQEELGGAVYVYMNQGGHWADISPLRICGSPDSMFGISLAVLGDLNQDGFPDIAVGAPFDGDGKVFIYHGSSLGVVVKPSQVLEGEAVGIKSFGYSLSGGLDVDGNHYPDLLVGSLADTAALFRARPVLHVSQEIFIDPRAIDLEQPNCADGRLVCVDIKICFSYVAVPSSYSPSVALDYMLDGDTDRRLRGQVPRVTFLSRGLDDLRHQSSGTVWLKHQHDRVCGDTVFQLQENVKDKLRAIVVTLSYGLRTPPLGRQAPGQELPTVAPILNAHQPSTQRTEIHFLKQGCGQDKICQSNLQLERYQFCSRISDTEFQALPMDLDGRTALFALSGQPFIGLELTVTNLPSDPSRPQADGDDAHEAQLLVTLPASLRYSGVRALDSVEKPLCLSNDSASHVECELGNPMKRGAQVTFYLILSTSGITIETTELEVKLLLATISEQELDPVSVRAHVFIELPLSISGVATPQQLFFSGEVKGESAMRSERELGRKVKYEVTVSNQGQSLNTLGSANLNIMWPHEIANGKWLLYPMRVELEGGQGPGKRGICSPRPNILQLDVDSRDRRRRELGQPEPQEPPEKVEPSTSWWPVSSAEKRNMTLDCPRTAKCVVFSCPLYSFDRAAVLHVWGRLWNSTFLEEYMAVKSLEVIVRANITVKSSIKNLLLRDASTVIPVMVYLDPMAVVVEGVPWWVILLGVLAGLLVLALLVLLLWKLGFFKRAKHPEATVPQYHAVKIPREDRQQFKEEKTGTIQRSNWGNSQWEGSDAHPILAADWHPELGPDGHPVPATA
T1 sequence (P09055 other isoform, or with tags, fused parts or gaps limits assumed, chain 2 of 2): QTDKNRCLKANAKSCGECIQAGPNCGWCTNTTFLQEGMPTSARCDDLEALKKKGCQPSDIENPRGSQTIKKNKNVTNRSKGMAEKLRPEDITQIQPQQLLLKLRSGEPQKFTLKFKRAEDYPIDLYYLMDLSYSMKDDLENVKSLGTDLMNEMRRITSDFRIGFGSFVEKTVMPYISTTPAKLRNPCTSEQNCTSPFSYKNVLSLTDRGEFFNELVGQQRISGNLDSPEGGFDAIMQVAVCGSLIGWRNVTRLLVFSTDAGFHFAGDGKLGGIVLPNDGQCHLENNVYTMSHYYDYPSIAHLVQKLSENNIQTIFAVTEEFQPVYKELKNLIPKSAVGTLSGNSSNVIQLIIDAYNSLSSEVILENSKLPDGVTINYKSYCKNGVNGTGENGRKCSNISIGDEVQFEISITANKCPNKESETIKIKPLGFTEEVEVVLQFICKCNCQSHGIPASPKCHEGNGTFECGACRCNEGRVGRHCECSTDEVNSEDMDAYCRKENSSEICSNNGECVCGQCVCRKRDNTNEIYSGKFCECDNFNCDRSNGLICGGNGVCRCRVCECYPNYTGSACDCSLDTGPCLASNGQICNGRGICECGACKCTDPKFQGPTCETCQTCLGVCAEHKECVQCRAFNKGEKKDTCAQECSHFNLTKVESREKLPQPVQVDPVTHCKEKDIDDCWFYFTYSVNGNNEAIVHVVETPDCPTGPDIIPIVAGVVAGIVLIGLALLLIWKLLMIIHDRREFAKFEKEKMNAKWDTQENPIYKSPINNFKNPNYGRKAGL
Source text: Characterization of skeletal muscle dystroglycan and integrin α7 complexes. Sucrose gradient fractionation of the DGC and the integrin α7 complex from wild-type (A, C), DG-deficient (B) and integrin α7-null (D) skeletal muscle solubilized with digitonin. Glycoprotein preparations enriched by WGA-chromatography were fractionated by sucrose gradient centrifugation. Equal volumes of fractions were loaded on an SDS-PAGE gel. The blot generated from this was probed with antibodies against: integrin α7 (α7), integrin β1(β1), α-DG (α-DG), α-sarcoglycan (α-SG), β-sarcoglycan (β-SG) and γ-sarcoglycan (γ-SG).
Lectin affinity chromatography and sucrose gradient fractionation. Total muscle homogenates in TBS (50 mM Tris-Cl pH 7.4, 150 mM NaCl) were solubilized with 1% digitonin. After centrifugation at 140,000×g for 37 min, solubilized proteins in the supernatant were mixed with wheat germ agglutinin (WGA)-agarose beads (Vector Laboratories) and rotated end-over-end at 4° C. for 2 hours. WGA-bound proteins were eluted with TBS containing 0.3 M N-acetyl-D-glucosamine and 0.1% digitonin. The eluant was applied to a 5-30% sucrose gradient and centrifuged at 215,000×g for 90 min. Fractions (1 ml) were collected from the top of the gradient and analyzed by SDS-PAGE.

B1: mouse dystroglycan from digitonin-solubilized skeletal muscle (receptor)
chain 1: HWPSEPSEAVRDWKNQLEASMHSVLSDFQEAVPTVVGIPDGTAVVGRSFRVSIPTDLIASSGEIIKVSAAGKEALPSWLHWDPHSHILEGLPLDTDKGVHYISVSAARLGANGSHVPQTSSVFSIEVYPEDHNEPQSVRAASSDPGEVVPSACAADEPVTVLTVILDADLTKMTPKQRIDLLNRMQSFSEVELHNMKLVPVVNNRLFDMSAFMAGPGNAKKVVENGALLSWKLGCSLNQNSVPDIRGVETPAREGAMSAQLGYPVVGWHIANKKPTLPKRLRRQIHATPTPVTAIGPPTTAIQEPPSRIVPTPTSPAIAPPTETMAPPVRDPVPGKPTVTIRTRGAIIQTPTLGPIQPTRVSEAGTTVPGQIRPTLTIPGYVEPTAVITPPTTTTKKPRVSTPKPATPSTDSSTTTTRRPTKKPRTPRPVPRVTTKAPITRLETASPPTRIRTTTSGVPRGGEPNQRPELKNHIDRVDAWVGTYFEVKIPSDTFYDNEDTTTDKLKLTLKLREQQLVGEKSWVQFNSNSQLMYGLPDSSHVGKHEYFMHATDKGGLSAVDAFEIHVHKRPQGDKAPARFKARLAGDPAPVVNDIHKKIALVKKLAFAFGDRNCSSITLQNITRG
chain 2: SIVVEWTNNTLPLEPCPKEQIIGLSRRIADENGKPRPAFSNALEPDFKALSIAVTGSGSCRHLQFIPVAPPSPGSSAAPATEVPDRDPEKSSEDDVYLHTVIPAVVVAAILLIAGIIAMICYRKKRKGKLTLEDQATFIKKGVPIIFADELDDSKPPPSSSMPLILQEEKAPLPPPEYPNQSMPETTPLNQDTVGEYTPLRDEDPNAPPYQPPPPFTAPMEGKGSRPKNMTPYRSPPPYVPP
notes: Native protein, WGA-enriched, within the dystrophin-glycoprotein complex; also called DG; DGC
As for B1, the binding result is “no binding”.

These data come from US20110166081A1 (UNIVERSITY OF IOWA RESEARCH FOUNDATION, published 2011).
